Assays:
Test in all cases: SPR
[1] = biological target: T1, Peroxiredoxin 1 wildtype, recombinant full-length (human, UniProt Q06830 1-199)
T1 sequence (looked up): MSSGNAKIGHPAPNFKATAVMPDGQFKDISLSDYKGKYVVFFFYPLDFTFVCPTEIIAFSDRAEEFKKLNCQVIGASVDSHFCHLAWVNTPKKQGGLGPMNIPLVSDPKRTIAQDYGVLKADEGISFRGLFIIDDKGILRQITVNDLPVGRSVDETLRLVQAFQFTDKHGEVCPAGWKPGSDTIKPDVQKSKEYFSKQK

[2] = biological target: T2, Peroxiredoxin 1 mutant, last 22 amino acids of the C-terminus deleted (human, UniProt Q06830 1-177)
T2 sequence (looked up): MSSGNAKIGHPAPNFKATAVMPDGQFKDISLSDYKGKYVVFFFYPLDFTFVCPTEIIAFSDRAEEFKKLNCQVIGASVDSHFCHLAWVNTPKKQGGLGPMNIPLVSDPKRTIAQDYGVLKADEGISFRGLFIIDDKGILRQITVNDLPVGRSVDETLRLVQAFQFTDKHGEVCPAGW

[3] = biological target: T3, Peroxiredoxin 4 mutant, C-terminal 22 amino acids deleted (human, UniProt Q13162 38-249)
T3 sequence (looked up): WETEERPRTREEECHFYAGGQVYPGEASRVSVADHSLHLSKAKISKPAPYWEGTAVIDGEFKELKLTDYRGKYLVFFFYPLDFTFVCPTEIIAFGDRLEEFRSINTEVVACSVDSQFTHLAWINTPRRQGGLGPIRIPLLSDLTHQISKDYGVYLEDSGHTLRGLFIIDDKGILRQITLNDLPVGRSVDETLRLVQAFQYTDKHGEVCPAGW

Kd [1]: 769 µM
koff [1]: 0.000532 s⁻¹
kon [1]: 0.693 M⁻¹ s⁻¹
Kd [2]: 0.175 µM
koff [2]: 0.000444 s⁻¹
kon [2]: 2540 M⁻¹ s⁻¹
Kd [3]: 29.7 µM
koff [3]: 0.00269 s⁻¹
kon [3]: 90.4 M⁻¹ s⁻¹
B1: Sulfiredoxin (Srx), recombinant full-length (enzyme)
chain: not shown
